The supplement of paper PMC10126150
± gives the standard deviation of the averaged measurements.

Test system: ATP
Experiment: switch fluorescence ratio, 500 uM ATP over buffer (Cy3 cluster intensity, sum of 5 cycles each) (fold (ratio)); higher = stronger signal-on switching upon ATP binding; sequences stand for … in TCGTCGGCAGCGTCAGATGTGTATAAGAGACAGTTTTTTTTTTTTTTTTTTTTTTTTT…TC
Details: aptamer strand: ATP DNA aptamer (quencher-CACCTGGGGGAGTATTGCGGAGGAAGG + anchor), 100 nM annealed; ATP concentration: 500 uM
How it was run: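 Per cluster, summed Cy3 intensity from the target cycles was divided by that from the buffer cycles to give the fluorescence ratio, then averaged per switch-domain sequence. Clusters outside 100-1000 RFU were excluded. The Cy3-labelled switching-strand clusters, on a modified Illumina MiSeq flow-cell, were annealed to 100 nM quencher-labelled ATP aptamer and imaged in selection buffer, then after 15 min with 500 uM ATP at 22 °C, for five cycles with NaOH stripping and re-annealing between them.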
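Note: ATP exposure 15 min at 22 °C before imaging.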

| Sequence | switch fluorescence ratio |
| --- | --- |
| ACGGGTCCGT | 0.986 ± 0.011 |
| ACGGGTCGGA | 1 ± 0.027 |
| ACGGGTGTAG | 0.989 ± 0.052 |
| ACGGGTTCGC | 0.988 ± 0.022 |
| ACGGTAATTC | 1.184 ± 0.011 |
| ACGGTAGGGT | 1.12 ± 0.06 |
| ACGGTCCAAG | 1.02 ± 0.015 |
| ACGGTGACGT | 1.01 ± 0.028 |
| ACGGTGCATG | 1.018 ± 0.006 |
| ACGGTGTATT | 0.998 ± 0.037 |
| ACGGTTGCGC | 1.01 ± 0.034 |
| ACGGTTTGGC | 0.939 ± 0.063 |
| ACGGTTTTAA | 1 ± 0.03 |
| ACGGTTTTAC | 1.12 ± 0.012 |
| ACGTAAAAAG | 1.01 ± 0.065 |
| ACGTAACATA | 1.22 ± 0.017 |
| ACGTACTACT | 1.3895 ± 0.00013 |
| ACGTACTATT | 1.45 ± 0.23 |
| ACGTAGGTTC | 1.063 ± 0.0048 |
| ACGTAGGTTT | 1.03 ± 0.046 |
| ACGTATCGGC | 1.056 ± 0.0075 |
| ACGTATTCAT | 1.11 ± 0.013 |
| ACGTATTTTT | 1.12 ± 0.018 |

| Sequence | switch fluorescence ratio |
| --- | --- |
| ACGTCCCGGG | 1.09 ± 0.015 |
| ACGTCGCATG | 1.09 ± 0.046 |
| ACGTCGGGGG | 1 ± 0.021 |
| ACGTGACAGG | 1.22 ± 0.013 |
| ACGTGATTTG | 1.04 ± 0.025 |
| ACGTGCAACT | 0.981 ± 0.049 |
| ACGTGGGGGA | 1.02 ± 0.051 |
| ACGTGTGGGA | 1.04 ± 0.02 |
| ACGTTAAGTG | 1 ± 0.011 |
| ACGTTAGGGT | 1.04 ± 0.058 |
| ACGTTATTTT | 1.126 ± 0.0061 |
| ACGTTGACAG | 1.05 ± 0.011 |
| ACGTTGCAGC | 1.047 ± 0.006 |
| ACGTTGCGAG | 0.994 ± 0.015 |
| ACGTTGCGTT | 1.02 ± 0.025 |
| ACGTTGCTTA | 1.007 ± 0.0052 |
| ACGTTGGAGA | 1.06 ± 0.0051 |
| ACGTTGGTAA | 1.02 ± 0.032 |
| ACGTTGTACA | 1.06 ± 0.038 |
| ACGTTGTACT | 1.14 ± 0.037 |
| ACGTTTATGT | 1.02 ± 0.02 |
| ACGTTTGGGG | 0.968 ± 0.049 |
| ACGTTTGTAT | 1 ± 0.031 |

| Sequence | switch fluorescence ratio |
| --- | --- |
| ACGTTTTGTG | 0.96 ± 0.028 |
| ACTAAAAAAA | 0.991 ± 0.025 |
| ACTAACGGGA | 1.39 ± 0.15 |
| ACTAATAAGT | 0.999 ± 0.028 |
| ACTAATGGGC | 1.03 ± 0.026 |
| ACTAATGTGG | 0.9959 ± 0.0068 |
| ACTACAGACG | 1.11 ± 0.061 |
| ACTACCTTAC | 3.15 ± 0.077 |
| ACTACGGATT | 1.06 ± 0.026 |
| ACTACGTGGG | 1.0708 ± 0.00037 |
| ACTACGTTAC | 2.88 ± 0.039 |
| ACTAGAAGAT | 0.9829 ± 0.0038 |
| ACTAGAAGGG | 0.9833 ± 0.0037 |
| ACTAGCAGCT | 1.01 ± 0.025 |
| ACTAGCTCTG | 1 ± 0.023 |
| ACTAGGCCGA | 1.01 ± 0.044 |
| ACTAGGCTGG | 1.01 ± 0.028 |
| ACTAGGGGCA | 0.98 ± 0.036 |
| ACTAGGGTCT | 1 ± 0.081 |
| ACTAGGGTTT | 1.018 ± 0.0027 |
| ACTAGTTTTG | 0.976 ± 0.033 |
| ACTATATTTA | 1.034 ± 0.0063 |
| ACTATATTTG | 1.04 ± 0.022 |

| Sequence | switch fluorescence ratio |
| --- | --- |
| ACTATCCAGG | 2.226 ± 0.0049 |
| ACTATCGAAA | 1.09 ± 0.03 |
| ACTATGAGCC | 1.01 ± 0.021 |
| ACTATGGGGC | 1.01 ± 0.081 |
| ACTATGTGGT | 0.9971 ± 0.0096 |
| ACTATTATTC | 1.05 ± 0.034 |
| ACTATTTCGA | 1.01 ± 0.03 |
| ACTCACATAG | 1.217 ± 0.0056 |
| ACTCAGACCT | 1.3 ± 0.067 |
| ACTCAGGTCC | 1.077 ± 0.0054 |
| ACTCAGTGTC | 1.05 ± 0.023 |
| ACTCCAATGG | 1.85 ± 0.12 |
| ACTCGATGTG | 0.989 ± 0.045 |
| ACTCGGGGTT | 0.998 ± 0.04 |
| ACTCGGGTAG | 1.028 ± 0.0056 |
| ACTCGGTGTG | 0.992 ± 0.029 |
| ACTCTACTTG | 1.42 ± 0.16 |
| ACTCTGCCGG | 1.2 ± 0.048 |
| ACTCTGTGC | 1.21 ± 0.032 |
| ACTCTTGCTT | 1.072 ± 0.0046 |
| ACTGAAGTTA | 0.98 ± 0.018 |
| ACTGACCCCC | 1.58 ± 0.14 |
| ACTGAGACGA | 1.07 ± 0.044 |

| Sequence | switch fluorescence ratio |
| --- | --- |
| ACTGAGGATA | 1 ± 0.037 |
| ACTGAGGCTA | 1.07 ± 0.011 |
| ACTGATCTGA | 0.987 ± 0.04 |
| ACTGCCTTCA | 1.52 ± 0.12 |
| ACTGCGGGAC | 1.51 ± 0.69 |
| ACTGCGTGAT | 1.05 ± 0.022 |
| ACTGCTGAAT | 0.99 ± 0.045 |
| ACTGCTGTTT | 0.9834 ± 0.0026 |
| ACTGGAAGTG | 1.03 ± 0.0039 |
| ACTGGACTGT | 1.18 ± 0.026 |
| ACTGGAGGTG | 1.067 ± 0.0038 |
| ACTGGATCCA | 1.01 ± 0.013 |
| ACTGGGCTGT | 1.06 ± 0.062 |
| ACTGGGGGCG | 1.03 ± 0.053 |
| ACTGGGGTCT | 1.01 ± 0.026 |
| ACTGGGGTGT | 1.07 ± 0.0045 |
| ACTGGGTAGA | 1.0278 ± 0.00073 |
| ACTGGGTGAG | 1.02 ± 0.023 |
| ACTGGGTTTT | 1.022 ± 0.0022 |
| ACTGGTATAA | 0.989 ± 0.015 |
| ACTGGTGGTG | 0.97817 ± 0.0005 |
| ACTGGTGTTC | 1.019 ± 0.0094 |
| ACTGTAATCC | 1.16 ± 0.046 |

| Sequence | switch fluorescence ratio |
| --- | --- |
| ACTGTACACC | 1.46 ± 0.026 |
| ACTGTACCGG | 1.45 ± 0.04 |
| ACTGTGGACA | 1.02 ± 0.016 |
| ACTGTGTACA | 0.9824 ± 0.0024 |
| ACTGTGTTTG | 0.991 ± 0.036 |
| ACTGTTCTCG | 1.01 ± 0.046 |
| ACTGTTTTGA | 0.962 ± 0.01 |
| ACTGTTTTTA | 0.9849 ± 0.004 |
| ACTTAAGTTT | 1.01 ± 0.07 |
| ACTTAATGGG | 1.034 ± 0.0014 |
| ACTTACAGGG | 1.171 ± 0.0058 |
| ACTTACTATC | 1.193 ± 0.0046 |
| ACTTACTTT | 1.16 ± 0.021 |
| ACTTAGCGGT | 1.07 ± 0.051 |
| ACTTAGGAGA | 1.01 ± 0.048 |
| ACTTAGGTTG | 1.04 ± 0.017 |
| ACTTATATA | 1.02 ± 0.022 |
| ACTTCAGCGG | 1.07 ± 0.015 |
| ACTTCATTTT | 1.02 ± 0.012 |
| ACTTGAGGGT | 1.05 ± 0.094 |
| ACTTGATCGC | 1.03 ± 0.03 |
| ACTTGGACAT | 1.04 ± 0.018 |
| ACTTGGACGT | 1.05 ± 0.048 |

| Sequence | switch fluorescence ratio |
| --- | --- |
| ACTTGGCACA | 1.08 ± 0.054 |
| ACTTGGGATG | 0.982 ± 0.037 |
| ACTTGGTACT | 1.02 ± 0.018 |
| ACTTGGTTGT | 0.992 ± 0.013 |
| ACTTGTTTCG | 0.961 ± 0.037 |
| ACTTGTTTGG | 1.01 ± 0.023 |
| ACTTTAGGGT | 1.15 ± 0.12 |
| ACTTTAGTTA | 0.9756 ± 0.0025 |
| ACTTTATTCT | 1.04 ± 0.02 |
| ACTTTCTAGC | 1.07 ± 0.029 |
| ACTTTGGGCG | 0.932 ± 0.059 |
| ACTTTGGTTT | 0.993 ± 0.031 |
| ACTTTGTACG | 1.06 ± 0.011 |
| ACTTTGTATT | 0.999 ± 0.013 |
| ACTTTTTCGG | 0.9909 ± 0.006 |
| ACTTTTTGAG | 0.996 ± 0.032 |
| ACTTTTTTGA | 1.005 ± 0.0056 |
| ACTTTTTTTA | 1.022 ± 0.01 |
| AGAAAAAATT | 1 ± 0.017 |
